Experimental data taken from US20240366624.
Substitutions are numbered along the chain they refer to.

Molecular target: wild type STIM1, recombinant, Q13586
Sequence (Q13586 23-213): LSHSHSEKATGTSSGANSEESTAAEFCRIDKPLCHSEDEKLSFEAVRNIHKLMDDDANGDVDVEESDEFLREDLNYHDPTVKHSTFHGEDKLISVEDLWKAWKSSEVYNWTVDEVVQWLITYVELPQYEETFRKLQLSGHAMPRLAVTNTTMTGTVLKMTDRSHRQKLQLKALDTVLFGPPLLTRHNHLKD

B1: recombinant human ERO1α (endoplasmic reticulum oxidoreductase 1α), wild type (protein)
chain: EEQPPETAAQRCFCQVSGYLDDCTCDVETIDRFNNYRLFPRLQKLLESDYFRYYKVNLKRPCPFWNDISQCGRRDCAVKPCQSDEVPDGIKSASYKYSEEANNLIEECEQAERLGAVDESLSEETQKAVLQWTKHDDSSDNFCEADDIQSPEAEYVDLLLNPERYTGYKGPDAWKIWNVIYEENCFKPQTIKRPLNPLASGQGTSEENTFYSWLEGLCVEKRAFYRLISGLHASINVHLSARYLLQETWLEKKWGHNITEFQQRFDGILTEGEGPRRLKNLYFLYLIELRALSKVLPFFERPDFQLFTGNKIQDEENKMLLLEILHEIKSFPLHFDENSFFAGDKKEAHKLKEDFRLHFRNISRIMDCVGCFKCRLWGKLQTQGLGTALKILFSEKLIANMPESGPSYEFHLTRQEIVSLFNAFGRISTSVKELENFRNLLQNIH
N-ethylmaleimide labeling on the Cys49 residue in STIM1 (mass spectrometry): wtERO1α, but not mERO1α, decreased N-ethylmaleimide labeling on the Cys49 residue in STIM1 in a concentration-dependent manner

B2: activity-null mutant ERO1α-Cys94Ser (protein)
chain: B1 chain with C71S
N-ethylmaleimide labeling on the Cys49 residue in STIM1 (mass spectrometry): wtERO1α, but not mERO1α, decreased N-ethylmaleimide labeling on the Cys49 residue in STIM1
